Experimental data from US20250376534A1 (ORNA THERAPEUTICS, published 2025).
Where no end group is shown, it is not given here.

Assays:
[1] = target: T1, BCMA-41BBζ CAR encoded by circular RNA formed from DNA Template A; assay: flow cytometry, live T cells 24 h after electroporation with 50 ng circRNA per 0.1x10^6 T cells; first of two values
T1 construct: also called Construct A
Source text: (§1) Donor T cells were thawed and activated with anti-CD3/CD28 solutions. Three days after activation, the cells were washed. […] Circular RNAs were formed from DNA templates present in Table 28 and/or 30. The cells were given a commercially available soluble BCMA detection reagent containing R-phycoerythrin (PE) fluorophore (e.g., from AcroBiosystems, Delaware), anti-Whitlow PE detection reagent, or anti-G4S linker detection reagent (e.g., G4S-AF647).

[2] = target: T2, CD19-CD28ζ CAR encoded by circular RNA formed from DNA Template F; assay: as above
T2 construct: also called Construct F
T2 sequence (chain, as listed by the source limits assumed): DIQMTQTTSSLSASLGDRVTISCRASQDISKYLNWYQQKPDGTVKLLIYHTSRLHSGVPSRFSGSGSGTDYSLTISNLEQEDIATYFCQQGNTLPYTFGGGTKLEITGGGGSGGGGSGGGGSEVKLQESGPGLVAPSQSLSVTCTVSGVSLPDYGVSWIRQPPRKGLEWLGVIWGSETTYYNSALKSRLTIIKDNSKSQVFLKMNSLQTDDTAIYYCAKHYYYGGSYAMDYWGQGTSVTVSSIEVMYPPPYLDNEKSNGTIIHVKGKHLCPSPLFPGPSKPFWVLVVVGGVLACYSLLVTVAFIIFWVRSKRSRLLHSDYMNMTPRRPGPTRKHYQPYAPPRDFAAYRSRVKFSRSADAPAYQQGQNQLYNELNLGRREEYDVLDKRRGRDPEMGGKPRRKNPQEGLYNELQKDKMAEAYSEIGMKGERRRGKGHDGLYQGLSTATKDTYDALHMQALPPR
Source text: as §1

[3] = target: T3, BCMA CAR encoded by circular RNA formed from DNA Template G; assay: as above
T3 construct: also called Construct G
T3 sequence (chain, as listed by the source limits assumed): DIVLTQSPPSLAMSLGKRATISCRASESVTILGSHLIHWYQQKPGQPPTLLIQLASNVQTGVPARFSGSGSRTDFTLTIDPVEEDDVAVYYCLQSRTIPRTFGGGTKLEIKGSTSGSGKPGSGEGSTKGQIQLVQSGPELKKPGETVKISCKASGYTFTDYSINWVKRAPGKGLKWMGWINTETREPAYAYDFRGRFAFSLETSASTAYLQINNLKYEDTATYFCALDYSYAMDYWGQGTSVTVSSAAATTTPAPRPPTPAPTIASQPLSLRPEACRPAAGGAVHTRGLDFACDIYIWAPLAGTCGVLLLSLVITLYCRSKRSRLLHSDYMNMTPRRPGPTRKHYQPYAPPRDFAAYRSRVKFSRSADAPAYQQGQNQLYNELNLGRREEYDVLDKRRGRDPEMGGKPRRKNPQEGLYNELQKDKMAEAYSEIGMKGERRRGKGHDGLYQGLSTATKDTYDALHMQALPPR
Source text: as §1

[4] = target: T4, BCMA CAR encoded by circular RNA formed from DNA Template H; assay: as above
T4 construct: also called Construct H
T4 sequence (chain, as listed by the source limits assumed): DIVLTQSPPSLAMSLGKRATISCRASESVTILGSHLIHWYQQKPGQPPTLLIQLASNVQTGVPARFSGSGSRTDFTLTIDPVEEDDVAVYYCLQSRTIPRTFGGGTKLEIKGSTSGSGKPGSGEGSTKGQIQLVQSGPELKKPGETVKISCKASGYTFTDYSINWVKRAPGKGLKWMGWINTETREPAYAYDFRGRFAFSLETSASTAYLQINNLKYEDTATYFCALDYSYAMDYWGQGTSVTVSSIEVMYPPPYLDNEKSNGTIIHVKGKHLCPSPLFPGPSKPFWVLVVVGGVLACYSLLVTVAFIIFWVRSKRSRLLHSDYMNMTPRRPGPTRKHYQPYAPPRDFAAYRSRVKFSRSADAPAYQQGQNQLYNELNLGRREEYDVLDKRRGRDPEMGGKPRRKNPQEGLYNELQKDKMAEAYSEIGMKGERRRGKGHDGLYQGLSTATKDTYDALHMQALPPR
Source text: as §1

[5] = target: T5, BCMA CAR encoded by circular RNA formed from DNA Template I; assay: as above
T5 construct: also called Construct I
T5 sequence (chain, as listed by the source limits assumed): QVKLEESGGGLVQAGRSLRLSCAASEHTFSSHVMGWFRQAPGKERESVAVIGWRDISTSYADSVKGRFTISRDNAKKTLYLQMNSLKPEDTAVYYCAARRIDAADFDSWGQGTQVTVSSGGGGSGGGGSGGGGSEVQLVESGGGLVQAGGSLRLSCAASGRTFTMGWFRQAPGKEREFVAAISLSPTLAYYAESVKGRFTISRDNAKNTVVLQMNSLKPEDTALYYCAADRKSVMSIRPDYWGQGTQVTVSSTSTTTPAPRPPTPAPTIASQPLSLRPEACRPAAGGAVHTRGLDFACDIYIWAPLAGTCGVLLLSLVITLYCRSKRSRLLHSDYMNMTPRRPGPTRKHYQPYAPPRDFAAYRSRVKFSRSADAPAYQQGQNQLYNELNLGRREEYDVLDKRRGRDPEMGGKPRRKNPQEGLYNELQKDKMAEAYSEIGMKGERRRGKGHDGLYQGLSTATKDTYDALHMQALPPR
Source text: as §1

[6] = target: T6, BCMA CAR encoded by circular RNA formed from DNA Template J; assay: as above
T6 construct: also called Construct J
T6 sequence (chain, as listed by the source limits assumed): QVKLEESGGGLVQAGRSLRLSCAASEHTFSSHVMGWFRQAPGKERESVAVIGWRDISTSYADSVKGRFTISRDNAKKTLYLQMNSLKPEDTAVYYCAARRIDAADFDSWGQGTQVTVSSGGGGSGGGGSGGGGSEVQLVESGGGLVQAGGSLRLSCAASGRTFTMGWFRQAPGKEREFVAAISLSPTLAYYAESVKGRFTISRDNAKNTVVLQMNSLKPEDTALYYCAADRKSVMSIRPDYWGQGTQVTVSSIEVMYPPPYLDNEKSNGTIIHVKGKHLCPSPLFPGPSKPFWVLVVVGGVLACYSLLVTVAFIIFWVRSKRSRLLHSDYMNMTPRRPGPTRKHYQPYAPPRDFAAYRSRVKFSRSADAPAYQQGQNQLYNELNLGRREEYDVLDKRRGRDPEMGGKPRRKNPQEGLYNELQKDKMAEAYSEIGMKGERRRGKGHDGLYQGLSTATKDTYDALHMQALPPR
Source text: as §1

[7] = target: T1, BCMA-41BBζ CAR encoded by circular RNA …; assay: flow cytometry, live T cells 24 h after electroporation with 50 ng circRNA per 0.1x10^6 T cells; second of two values
Source text: as §1

[8] = target: T2, CD19-CD28ζ CAR encoded by circular RNA …; assay: as above
Source text: as §1

[9] = target: T3, BCMA CAR encoded by circular RNA formed …; assay: as above
Source text: as §1

[10] = target: T4, BCMA CAR encoded by circular RNA formed …; assay: as above
Source text: as §1

[11] = target: T5, BCMA CAR encoded by circular RNA formed …; assay: as above
Source text: as §1

[12] = target: T6, BCMA CAR encoded by circular RNA formed …; assay: as above
Source text: as §1

T1 sequence (chain, as listed by the source): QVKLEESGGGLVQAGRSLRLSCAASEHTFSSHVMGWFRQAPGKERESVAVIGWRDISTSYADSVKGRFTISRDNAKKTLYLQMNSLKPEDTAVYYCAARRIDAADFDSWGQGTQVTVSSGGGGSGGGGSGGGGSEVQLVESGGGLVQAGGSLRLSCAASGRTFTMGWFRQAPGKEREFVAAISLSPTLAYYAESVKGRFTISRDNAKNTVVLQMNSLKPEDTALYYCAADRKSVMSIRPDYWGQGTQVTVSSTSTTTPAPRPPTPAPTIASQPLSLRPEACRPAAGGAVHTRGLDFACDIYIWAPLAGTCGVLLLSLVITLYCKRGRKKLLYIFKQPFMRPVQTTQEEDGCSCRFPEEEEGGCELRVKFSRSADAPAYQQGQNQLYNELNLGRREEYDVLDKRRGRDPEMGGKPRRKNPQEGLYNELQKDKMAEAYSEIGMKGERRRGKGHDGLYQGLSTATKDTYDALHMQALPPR

gMFI [1]: 61500
gMFI [2]: 71.7
gMFI [3]: 18200
gMFI [4]: 57800
gMFI [5]: 57400
gMFI [6]: 84700
gMFI [7]: 66300
gMFI [8]: 81.5
gMFI [9]: 18900
gMFI [10]: 59700
gMFI [11]: 58000
gMFI [12]: 93400
B1: soluble BCMA detection reagent containing R-phycoerythrin (PE) fluorophore (receptor, UniProt Q02223 1-54, looked up)
chain: MLQMAGQCSQNEYFDSLLHACIPCQLRCSSNTPPLTCQRYCNASVTNSVKGTNA
modifications: cysteine pairing not given here; also: conjugated to R-phycoerythrin (PE) fluorophore, site not given here
notes: also called soluble BCMA-PE; sBCMA-PE
